Laboratory results reported in patent US20160369006A1.

Target: FcγRIIIA (CD16A) on transduced Jurkat cells (human) (UniProt P08637)
Assay: cell-based or functional assay
Parameters: EC50, NFAT-luciferase reporter in CD16A Jurkat cells with RMF-pulsed T2 cells (reverse signaling): unit not given beside the values

Chain of FcγRIIIA (CD16A) on transduced Jurkat cells (human) (P08637 17-254): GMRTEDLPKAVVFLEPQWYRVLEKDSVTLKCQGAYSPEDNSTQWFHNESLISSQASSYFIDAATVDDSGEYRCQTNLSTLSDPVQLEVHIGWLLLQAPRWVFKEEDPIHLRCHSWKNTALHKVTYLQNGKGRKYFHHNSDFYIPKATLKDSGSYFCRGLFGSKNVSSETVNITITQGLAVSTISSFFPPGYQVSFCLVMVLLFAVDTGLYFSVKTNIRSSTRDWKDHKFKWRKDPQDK

Row | Substance | EC50, NFAT-luciferase reporter in CD16A Jurkat cells with RMF-pulsed T2 cells (reverse signaling) | fold decrease in EC50 relative to wildtype ESK1, CD16A reporter [fold]
1 | ESK1 containing D265A/P329A mutations in the Fc domain (ESK1 DAPA) (antibody) | > 10000 | 
2 | ESKM having 100% reduction in fucosylation (GlymaxX technology) (antibody) | 0.17 | 5
